The source of these data is article PMC6908968 (Cell, 2019).

For experiment [1], the target named is EBOV GP ectodomain residues 1-636 (GPec) (Zaire ebolavirus, strain  …, UniProt Q05320).
The target of experiment [2] is T1, thermolysin-cleaved EBOV GP on Jurkat-GP cells (cleaved GP) (Zaire ebolavirus, Makona (GP1 core …, strain)).
T1 chain 1: not shown
T1 chain 2: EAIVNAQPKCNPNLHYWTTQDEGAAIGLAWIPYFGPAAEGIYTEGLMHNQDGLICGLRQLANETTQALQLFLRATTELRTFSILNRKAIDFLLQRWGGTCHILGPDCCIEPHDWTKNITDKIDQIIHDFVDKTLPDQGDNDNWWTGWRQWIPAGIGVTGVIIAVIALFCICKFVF

B1: 5.6.c3206 (antibody, V domains shown)
VH: QVQLKESGPGLVKPSQTLSLTCSVSGGAISNGGYCYTWIRQRPGKGLESIGYMHYSGSPYYNPSLKSRVTIYVDTSKNQFSLKLSSVTAADTAVYYCARGLLWFGESPFYYFDYWGQGTLVTVSS
VL: QSVLTQPPSVSGAPGQRVTISCTGSSSNIGAGYDVHWYQQLPGTAPKLLIYGNSNRPSGVPDRFSGSKSGTSASLAITGLQAEDEADYYCQSCDSSLSVVFGGGTKLTVL
Turning to B1, the binding result in experiment [1] and in experiment [2] was “binds” each time.

B2: 5.6.c3221 (antibody, V domains shown)
VH: QEELVESGGGVVQPGRSLRLSCAASTFTFSIYAMHWVRQAPGKGLEWVAVISYDGSNRYYADSVKGRFTISRDNSKNTVYLQMNSLRAEDTAVYFCAKDLGSNGWYYFDSWGQGTLVTVSS
VL: EIVLTQSPGTLSLSPGERATLSCRASQSVSSRYLAWYQQKPGQAPRLLIYGVSSRATGVPDRFSGSGSGTDFTLTISRLEPEDFAVYYCQHYGSSPWRPFGQGTKLEIK
For B2, the binding result in experiment [1] and in experiment [2] was “binds” each time.

B3: 5.6.c3191 (antibody, V domains shown)
VH: QVQLAQSGAEVKKPGASVKVSCKSSGYNFTTHGFNWVRQVPGQGLEWMGWISAYNADTNYAQKFQGRLTLTTETSSNTAYMELRSLTSDDTAVYYCARGEEYSTLYFYGMDVWGQGTTVTVSS
VL: DIQMTQSPSSVSASVGDRVTITCRASQGISIWLAWYQQKPGKAPKLLIYGASTLQSGVPSRFSGSGSGADYTLTINSLQPEDFATYFCQQAHSFPYTFGQGTKLEIR
Take B3: the binding result in experiment [1] and in experiment [2] was “binds” each time.

B4: 5.6.c3166 (antibody, V domains shown)
VH: EVHLVESGGGLVQPGGSLRLSCAASGFSFNTHWMNWVRQAPGKGLEWVANIKQNGGEKYYVDSVKGRFTISRDNAKNTLFLQMNSLRGDDTAVYYCARGPPPAAPEDLFYNYTMDVWGQGTTVTVSS
VL: EIVMTQSPATLSVSPGERATLSCRASQSVINHLAWYQQKPGQTPRLLIYGASTRATGIPARFSGSGSGTEFTLTISSLQSEDFAVYFCQQYNTWPPFTFGGGTKVEIK
Regarding B4, the binding result in experiment [1] and in experiment [2] was “binds” in each case.

B5: 5.6.c3168 (antibody, V domains shown)
VH: EVQLVESGGGLVQPGGSLRLSCAASGFTLSNYDMNWVRQAPGKRLEWVSYISSSGSTTYYVDSVKGRFTISRDNAKNSLYLQMNSLRAEDTAVYYCARGHNNWFLYFDSWGQGTLVTVSS
VL: EILMTQSPATLSVSPGERATLSCRASQSVSSNLAWYQQVPGQAPRLLISDASTRATGIPARFSGSGSGTEFTLTINSLQSEDFAVYYCQQYNDWPGTFGQGTKLEIK
For the molecule B5, the binding result in experiment [1] and in experiment [2] was “binds” each time.

B6: 5.6.c3151 (antibody, V domains shown)
VH: EVQLVESGGGVVQPGGSLRLSCAASGFDFDDYPMNWVRQAPGKGLELVFLISGDGGSTYSADSVKGRFTISRDNSKNSLYLQMNSLRTEDTALYYCAKDAVDNSGLYYYGMDVWGQGTTVIVSS
VL: DIQMTQSPSSVSASVGDRVTINCRASQGISGWLAWYQQKPGKAPKLLIYAASSLQSGVPSRFSGSGSGTDFTLAISSLQPEDLATYYCQQTHSFPFTFGPGTKVGIK
As for B6, the binding result in experiment [1] and in experiment [2] was “binds” each time.

B7: 5.6.c3197 (antibody, V domains shown)
VH: QVQVVESGGGVVQPGKSLRLSCAASGFTFSSYGMHWVRQAPGKGLEWVAFIAYDGSNEYYADSVKGRFTISRDNSKITLYLQMNSLRAEDTAMYYCAKEGAGHDALYYYGMDVWGQGTTVTVSS
VL: DIQMTQSPSSVSASVGDRVTITCRASQGISFWLAWYQQKPGKAPELLISAASSLQSGVPSRFSGSGSGTDFTLTISSLQPEDFATYYCLQAHSFPYTFGQGTKLEIK
As for B7, the binding result in experiment [1] and in experiment [2] was “binds” throughout.
